Earlier results in article PMC9405667.

How the values were obtained:
[1] = target: chemerin receptor 2 (chem2) (Homo sapiens) (UniProt P46091)
[2] = target: chemerin receptor 1 (chem1) (Homo sapiens) (UniProt Q99788)
Chain of chemerin receptor 1 (chem1) (Homo sapiens) (Q99788 whole entry): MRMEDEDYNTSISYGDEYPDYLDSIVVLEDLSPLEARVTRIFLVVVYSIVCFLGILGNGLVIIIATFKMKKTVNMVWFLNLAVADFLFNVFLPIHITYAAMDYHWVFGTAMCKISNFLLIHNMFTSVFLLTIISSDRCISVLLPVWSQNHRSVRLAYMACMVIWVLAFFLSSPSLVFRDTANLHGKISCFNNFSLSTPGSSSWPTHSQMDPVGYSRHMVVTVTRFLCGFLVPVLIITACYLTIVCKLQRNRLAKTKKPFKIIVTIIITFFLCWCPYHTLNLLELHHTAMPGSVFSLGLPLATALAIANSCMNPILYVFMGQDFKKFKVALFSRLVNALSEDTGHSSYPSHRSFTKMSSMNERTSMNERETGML

Chain of chemerin (chem157S) (Q99969 21-157): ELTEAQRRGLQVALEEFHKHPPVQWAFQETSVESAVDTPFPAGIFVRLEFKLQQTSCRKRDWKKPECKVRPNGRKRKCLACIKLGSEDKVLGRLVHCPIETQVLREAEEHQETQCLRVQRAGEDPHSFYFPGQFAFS
Chain of chemerin receptor 2 (chem2) (Homo sapiens) (P46091 whole entry): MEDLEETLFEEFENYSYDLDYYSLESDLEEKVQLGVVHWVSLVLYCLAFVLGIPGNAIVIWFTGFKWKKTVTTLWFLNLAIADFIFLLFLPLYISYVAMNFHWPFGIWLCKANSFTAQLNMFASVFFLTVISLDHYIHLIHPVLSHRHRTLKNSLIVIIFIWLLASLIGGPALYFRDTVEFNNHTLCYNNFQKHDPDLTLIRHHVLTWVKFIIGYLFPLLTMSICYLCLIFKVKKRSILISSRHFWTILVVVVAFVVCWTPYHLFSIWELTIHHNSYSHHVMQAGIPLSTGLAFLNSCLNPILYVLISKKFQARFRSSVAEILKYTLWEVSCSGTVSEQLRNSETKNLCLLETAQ

chemerin (chem157S) (from UniProt Q99969)
Kd [1]: 0.21 nM | Kd [2]: 0.88 nM
